From patent US20090186816 come the findings set out here.

Data set [1] deals with F-ZFPNARP-meth-NES (ZFPNARP fused to human DNMT3a catalytic domain residues 592-909) (synthetic construct). Briefly: cell_activity.
Data set [2] deals with F-ZFPcont-meth-NES (ZFPcont fused to human DNMT3a catalytic domain residues 592-909) (synthetic construct). The data set is described as follows: cell_activity. The settings on record: NARP cells; scale: fold lower CpG methylation than F-ZFPNARP-meth-NES.

“GCCCTGGCC (double strand) [wild-type mtDNA 8993 site]” gave an activity in data set [1] (wt cells, indistinguishable from background, scale: fold lower CpG methylation than on NARP site) of 6.

As for “GCCCGGGCC (double strand) [NARP T8993G mtDNA site]”, the activity (% of clones with CpG methylation) in data set [1] (bisulfite sequencing around site in NARP cybrid cells, CpGs within site protected) turned out to be 23. In data set [2], this sequence displayed an activity of 6.
